Measurements from the supplement of paper PMC10567573.

B1: TRIM55 (parent)
chain: ICPICLEMFTKPVVILPCQHNLCR
B2: TRIM63 (parent)
chain: QRITQEQEKKLSFIEALIQQYQEQ

Variants of: B1
Test: protein stability index of a GFP-peptide fusion (GPS, HEK-293T) (PSI 1-6); higher = more stable
Conditions: c terminus: a fixed tail appended
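Note: lentivirally expressed fusions sorted by FACS into six bins by GFP to DsRed ratio, PSI derived from sequencing read proportions per bin multiplied by bin number.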

With ICPICLEMFTKPVVILPCQHNLCS as the variant, how does the protein stability index read?
The protein stability index was 1.85.

Which protein stability index does the source give for ICPICLEMFTKPVVILPCQHNLCT here?
Its protein stability index is 2.71.

For ICPICLEMFTKPVVILPCQHNLCV, which protein stability index is on record?
The protein stability index was 1.83.

Which protein stability index does the source give for ICPICLEMFTKPVVILPCQHNLCW here?
The protein stability index was 2.35.

With ICPICLEMFTKPVVILPCQHNLCY as the variant, how does the protein stability index read?
Its protein stability index is 2.13.

Variants of: B2
Test: as above
Conditions: c terminus: a fixed tail appended

Which protein stability index does the source give for ARITQEQEKKLSFIEALIQQYQEQ here?
The protein stability index was 2.3.

For CRITQEQEKKLSFIEALIQQYQEQ, which protein stability index is on record?
The protein stability index was 2.11.

With DRITQEQEKKLSFIEALIQQYQEQ as the variant, how does the protein stability index read?
Its protein stability index is 2.32.

With ERITQEQEKKLSFIEALIQQYQEQ as the variant, how does the protein stability index read?
Its protein stability index is 3.15.

For FRITQEQEKKLSFIEALIQQYQEQ, which protein stability index is on record?
The protein stability index was 2.91.

Which protein stability index does the source give for GRITQEQEKKLSFIEALIQQYQEQ here?
Its protein stability index is 2.13.

For HRITQEQEKKLSFIEALIQQYQEQ, which protein stability index is on record?
Its protein stability index is 2.84.

Which protein stability index does the source give for IRITQEQEKKLSFIEALIQQYQEQ here?
Its protein stability index is 2.75.

For KRITQEQEKKLSFIEALIQQYQEQ, which protein stability index is on record?
Its protein stability index is 2.17.

Which protein stability index does the source give for LRITQEQEKKLSFIEALIQQYQEQ here?
The protein stability index was 2.57.

Which protein stability index does the source give for MRITQEQEKKLSFIEALIQQYQEQ here?
Its protein stability index is 2.36.

With NRITQEQEKKLSFIEALIQQYQEQ as the variant, how does the protein stability index read?
Its protein stability index is 2.31.

Which protein stability index does the source give for PRITQEQEKKLSFIEALIQQYQEQ here?
The protein stability index was 2.17.

With RRITQEQEKKLSFIEALIQQYQEQ as the variant, how does the protein stability index read?
Its protein stability index is 2.16.

With SRITQEQEKKLSFIEALIQQYQEQ as the variant, how does the protein stability index read?
Its protein stability index is 2.23.

Which protein stability index does the source give for TRITQEQEKKLSFIEALIQQYQEQ here?
Its protein stability index is 2.19.

For VRITQEQEKKLSFIEALIQQYQEQ, which protein stability index is on record?
The protein stability index was 1.79.

Which protein stability index does the source give for WRITQEQEKKLSFIEALIQQYQEQ here?
Its protein stability index is 1.95.

Which protein stability index does the source give for YRITQEQEKKLSFIEALIQQYQEQ here?
Its protein stability index is 1.95.

For QAITQEQEKKLSFIEALIQQYQEQ, which protein stability index is on record?
Its protein stability index is 2.57.

With QCITQEQEKKLSFIEALIQQYQEQ as the variant, how does the protein stability index read?
The protein stability index was 2.85.

With QDITQEQEKKLSFIEALIQQYQEQ as the variant, how does the protein stability index read?
Its protein stability index is 3.23.

With QEITQEQEKKLSFIEALIQQYQEQ as the variant, how does the protein stability index read?
Its protein stability index is 1.88.

For QFITQEQEKKLSFIEALIQQYQEQ, which protein stability index is on record?
The protein stability index was 2.06.

With QGITQEQEKKLSFIEALIQQYQEQ as the variant, how does the protein stability index read?
Its protein stability index is 2.35.

With QHITQEQEKKLSFIEALIQQYQEQ as the variant, how does the protein stability index read?
Its protein stability index is 2.44.

With QIITQEQEKKLSFIEALIQQYQEQ as the variant, how does the protein stability index read?
The protein stability index was 1.89.

With QKITQEQEKKLSFIEALIQQYQEQ as the variant, how does the protein stability index read?
Its protein stability index is 2.26.

Which protein stability index does the source give for QLITQEQEKKLSFIEALIQQYQEQ here?
The protein stability index was 2.63.

For QMITQEQEKKLSFIEALIQQYQEQ, which protein stability index is on record?
The protein stability index was 2.48.

Which protein stability index does the source give for QNITQEQEKKLSFIEALIQQYQEQ here?
The protein stability index was 2.91.

Which protein stability index does the source give for QPITQEQEKKLSFIEALIQQYQEQ here?
Its protein stability index is 3.23.

For QQITQEQEKKLSFIEALIQQYQEQ, which protein stability index is on record?
Its protein stability index is 2.23.

Which protein stability index does the source give for QSITQEQEKKLSFIEALIQQYQEQ here?
The protein stability index was 2.45.

For QTITQEQEKKLSFIEALIQQYQEQ, which protein stability index is on record?
The protein stability index was 2.42.

Which protein stability index does the source give for QVITQEQEKKLSFIEALIQQYQEQ here?
Its protein stability index is 2.72.

Which protein stability index does the source give for QWITQEQEKKLSFIEALIQQYQEQ here?
Its protein stability index is 2.2.

For QYITQEQEKKLSFIEALIQQYQEQ, which protein stability index is on record?
Its protein stability index is 1.75.

Which protein stability index does the source give for QRATQEQEKKLSFIEALIQQYQEQ here?
The protein stability index was 2.37.

Which protein stability index does the source give for QRCTQEQEKKLSFIEALIQQYQEQ here?
The protein stability index was 2.3.

Which protein stability index does the source give for QRDTQEQEKKLSFIEALIQQYQEQ here?
The protein stability index was 2.22.

For QRETQEQEKKLSFIEALIQQYQEQ, which protein stability index is on record?
The protein stability index was 2.45.

With QRFTQEQEKKLSFIEALIQQYQEQ as the variant, how does the protein stability index read?
Its protein stability index is 2.61.

Which protein stability index does the source give for QRGTQEQEKKLSFIEALIQQYQEQ here?
The protein stability index was 2.31.

With QRHTQEQEKKLSFIEALIQQYQEQ as the variant, how does the protein stability index read?
The protein stability index was 2.54.

For QRKTQEQEKKLSFIEALIQQYQEQ, which protein stability index is on record?
The protein stability index was 2.37.

Which protein stability index does the source give for QRLTQEQEKKLSFIEALIQQYQEQ here?
Its protein stability index is 2.5.

For QRMTQEQEKKLSFIEALIQQYQEQ, which protein stability index is on record?
The protein stability index was 1.83.

For QRNTQEQEKKLSFIEALIQQYQEQ, which protein stability index is on record?
Its protein stability index is 2.48.

Which protein stability index does the source give for QRPTQEQEKKLSFIEALIQQYQEQ here?
Its protein stability index is 2.62.

For QRQTQEQEKKLSFIEALIQQYQEQ, which protein stability index is on record?
Its protein stability index is 2.33.

For QRRTQEQEKKLSFIEALIQQYQEQ, which protein stability index is on record?
The protein stability index was 2.76.

For QRSTQEQEKKLSFIEALIQQYQEQ, which protein stability index is on record?
The protein stability index was 2.59.

With QRTTQEQEKKLSFIEALIQQYQEQ as the variant, how does the protein stability index read?
The protein stability index was 2.39.

Which protein stability index does the source give for QRVTQEQEKKLSFIEALIQQYQEQ here?
Its protein stability index is 2.56.

Which protein stability index does the source give for QRWTQEQEKKLSFIEALIQQYQEQ here?
Its protein stability index is 2.44.

Which protein stability index does the source give for QRYTQEQEKKLSFIEALIQQYQEQ here?
Its protein stability index is 2.16.

With QRIAQEQEKKLSFIEALIQQYQEQ as the variant, how does the protein stability index read?
The protein stability index was 3.01.

For QRICQEQEKKLSFIEALIQQYQEQ, which protein stability index is on record?
Its protein stability index is 2.1.

Which protein stability index does the source give for QRIDQEQEKKLSFIEALIQQYQEQ here?
Its protein stability index is 3.22.

Which protein stability index does the source give for QRIEQEQEKKLSFIEALIQQYQEQ here?
The protein stability index was 3.19.

For QRIFQEQEKKLSFIEALIQQYQEQ, which protein stability index is on record?
Its protein stability index is 2.2.

For QRIGQEQEKKLSFIEALIQQYQEQ, which protein stability index is on record?
The protein stability index was 2.73.

Which protein stability index does the source give for QRIHQEQEKKLSFIEALIQQYQEQ here?
The protein stability index was 1.8.

For QRIIQEQEKKLSFIEALIQQYQEQ, which protein stability index is on record?
The protein stability index was 2.55.

Which protein stability index does the source give for QRIKQEQEKKLSFIEALIQQYQEQ here?
Its protein stability index is 2.8.

Which protein stability index does the source give for QRILQEQEKKLSFIEALIQQYQEQ here?
The protein stability index was 2.63.

Which protein stability index does the source give for QRIMQEQEKKLSFIEALIQQYQEQ here?
Its protein stability index is 2.7.

With QRINQEQEKKLSFIEALIQQYQEQ as the variant, how does the protein stability index read?
The protein stability index was 2.59.

Which protein stability index does the source give for QRIPQEQEKKLSFIEALIQQYQEQ here?
Its protein stability index is 2.87.

With QRIQQEQEKKLSFIEALIQQYQEQ as the variant, how does the protein stability index read?
Its protein stability index is 2.89.

For QRIRQEQEKKLSFIEALIQQYQEQ, which protein stability index is on record?
Its protein stability index is 2.79.

With QRISQEQEKKLSFIEALIQQYQEQ as the variant, how does the protein stability index read?
Its protein stability index is 2.5.

Which protein stability index does the source give for QRIVQEQEKKLSFIEALIQQYQEQ here?
Its protein stability index is 2.87.

Which protein stability index does the source give for QRIWQEQEKKLSFIEALIQQYQEQ here?
The protein stability index was 1.71.

Which protein stability index does the source give for QRIYQEQEKKLSFIEALIQQYQEQ here?
Its protein stability index is 1.66.

Which protein stability index does the source give for QRITAEQEKKLSFIEALIQQYQEQ here?
Its protein stability index is 2.5.

For QRITCEQEKKLSFIEALIQQYQEQ, which protein stability index is on record?
Its protein stability index is 2.39.

With QRITDEQEKKLSFIEALIQQYQEQ as the variant, how does the protein stability index read?
The protein stability index was 2.74.

With QRITEEQEKKLSFIEALIQQYQEQ as the variant, how does the protein stability index read?
The protein stability index was 2.98.

For QRITFEQEKKLSFIEALIQQYQEQ, which protein stability index is on record?
Its protein stability index is 1.73.

For QRITGEQEKKLSFIEALIQQYQEQ, which protein stability index is on record?
Its protein stability index is 2.62.

Which protein stability index does the source give for QRITHEQEKKLSFIEALIQQYQEQ here?
Its protein stability index is 2.05.

For QRITIEQEKKLSFIEALIQQYQEQ, which protein stability index is on record?
Its protein stability index is 2.39.

With QRITKEQEKKLSFIEALIQQYQEQ as the variant, how does the protein stability index read?
Its protein stability index is 2.82.

For QRITLEQEKKLSFIEALIQQYQEQ, which protein stability index is on record?
The protein stability index was 1.68.

For QRITMEQEKKLSFIEALIQQYQEQ, which protein stability index is on record?
The protein stability index was 2.33.

Which protein stability index does the source give for QRITNEQEKKLSFIEALIQQYQEQ here?
Its protein stability index is 2.32.

For QRITPEQEKKLSFIEALIQQYQEQ, which protein stability index is on record?
Its protein stability index is 2.13.
